Measurements published in US20220380801A1, “TRIPARTITE SYSTEMS FOR PROTEIN DIMERIZATION AND METHODS OF USE” (priority 2019, published 2022).

Test system: luciferase gene expression in HEK293 cells
Assay: AAV transduction, inducible luciferase transgene in trans
Assay type: cell-based, human
Conditions: two separate AAV8 preparations, simeprevir
Text: AAV expression vectors were generated by subcloning specific promoter and transgene elements into an intermediate vector derived from pAAV-CMV (Takara) in which the CMV promoter downstream of the 5′ITR was removed and a WPRE element and SV40 polyA sequence were inserted upstream of the 3′ ITR.
To generate AAV encoding an inducible luciferase transgene, the ZHFD1-luciferase cassette was amplified by PCR from pZFHD1-Luciferase provided in the iDimerize regulated transcription system (Takara) and subcloned into the intermediate AAV vector. […]
Recombinant AAV (rAAV) was produced by triple-transfection of 40 T-175 cm^2 flasks containing HEK293 T-17 cells at 80% confluency using a standard helper-free approach. […] Fractions were taken from the ultraclear centrifuge tubes by piercing the tube with a 19 gauge syringe in the 60% layer below the clear band representing the virus and the purity of each fraction was assessed by SDS-PAGE of each fraction and subsequent Sypro Ruby analysis. […]
All rAAV transduction assays were performed in adherent HEK293 cells cultured in 96-well plates. Cells enzymatically dissociated from a tissue culture flask were counted and plated at 2.5×10^4 cells/well in a 96-well plate. […] For luminescence assays, SteadyGlo luciferase substrate (Promega) was added and luminescence was quantified with an Envision plate reader. […]

B1: PRSIM_23: Tn3 protein specific for HCV NS3/4A PR (S139A):simeprevir complex, SEQ ID NO: 5 (protein)
chain: RLDAPSQIEVKDVTDTTALITWVDPRYDDIWWFELTYGIKDVPGDRTTIKLYLNDPYYSIGNLKPDTEYEVSLISYTGDSYSRSGSNPAKITFKTGL
modifications: PRSIM_23
induction of luciferase activity: 228 fold
